Molecular target: sdAb1 (NB07) (Artificial sequence)
Assay: MST; negative control; p86 says only weak interaction in phage ELISA (FIG. 4)
Settings: G4

Chain of sdAb1 (NB07) (Artificial sequence) (chain, as listed by the source): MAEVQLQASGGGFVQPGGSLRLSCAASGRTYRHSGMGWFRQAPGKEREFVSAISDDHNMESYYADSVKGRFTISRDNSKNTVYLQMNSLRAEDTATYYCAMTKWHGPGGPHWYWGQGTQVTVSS

CTGGGAGGAGCTGGGGGAGGAGA (structured_DNA) [HBV pre-core promoter G-quadruplex (WT)]: no binding.

Source: patent US20230218656, “POLYPEPTIDES […] AGAINST VIRAL INFECTION AND USES […]” (QUADRUMIX BIOTECHNOLOGY INC., published 2023)
